Data: patent US6617306B2, “Carrier for in vivo delivery of a therapeutic agent” (priority 1998, dated 2003)
Side chains are listed from the residue outwards. * marks the point of attachment. Biotin = O=C1N[C@H]2[C@H](CS[C@H]2CCCCC(=O)*)N1; cysteamine‑PEG/Lys copolymer = not defined here; PEG/Lys copolymer = not defined here

Tests used:
[1] = Release of peptide from PEG/Lys carrier by reductive cleavage of the disulfide linkage with glutathione; format: physicochemical; conditions: for half-time of release of peptide from carrier: 3 mM glutathione in PBS (pH 7.4), room temperature, cysteamine thiol linker
Method: The disulfide linked conjugate, PEG-cysteamine-N-acetyl-Phe-Arg-Arg-Arg-Cys-NH2 (SEQ ID NO:9) was added to a solution of reduced glutathione (3 mM in PBS) to a final peptide concentration of 0.3 mM, and then incubated under N2 at room temperature. A sample was taken at each time point, acidified by adding an aliquot of 5% TFA and applied to a G-75 column in 0.1% TFA (7 ml bed volume) to separate PEG-conjugated peptide from free peptide. Appropriate fractions in the high-molecular-weight region were pooled, and the extent of peptide derivatization at each time point was determined by amino acid analysis. For measuring the release of radiolabeled peptide, each time point aliquot was acidified to pH 3.5 with sulfuric acid. The PEG-conjugated peptide and the free peptide were then separated using ultrafiltration on “CENTRICON-10”. To ensure complete separation, the retentate was diluted and ultrafiltered two more times. Radioactivity in the retentate and combined filtrate was quantitated by scintillation counting.
Release of the peptide, N-acetyl-Phe-Arg-Arg-Arg-Cys-NH2 (SEQ ID NO:9), by reductive cleavage of its disulfide linkage to a carrier of the present invention comprising a PEG/Lys copolymer was evaluated using 3 mM glutathione in PBS (pH 7.4) at room temperature. At each time point, an aliquot was withdrawn and acidified to halt the disulfide interchange reaction. Released peptide was removed from PEG/Lys-peptide conjugate by gel filtration chromatography, and the ratio of PEG (i.e. Lys residues) to peptide (i.e. Phe or Arg residues) was determined by amino acid analysis.
Release kinetics were also studied using the disulfide-linked radiolabeled peptides, N-acetyl-Arg-Lys-Lys-Arg-Arg-Gln-Arg-Arg-Arg-Cys-NH2 (SEQ ID NO:10) and N-acetyl-Arg-Lys-Lys-Arg-Arg-Gln-Arg-Arg-Arg-Lys-(biotin)-Cys-NH2 (SEQ ID NO:3). Released peptide was removed from PEG/Lys-peptide conjugate by ultrafiltration.
Analysis of the release rate of the radiolabeled peptide, N-acetyl-Arg-Lys-Lys-Arg-Arg-Gln-Arg-Arg-Arg-Lys-(biotin)-Cys-NH2 (SEQ ID NO:3) gave a half-time of about 40 min in the presence of 30 mM glutathione (FIG. 6). Since the disulfide cleavage rate is proportional to glutathione concentration^8, the sterically hindered linker has a release rate about 100 times slower than does a carrier of the present invention in which the thiol compound is cysteamine. Thus, the release rate can be readily controlled by selection of a thiol compound having functional groups, wherein the thiol compound is conjugated to the polymer, and conjugated via a disulfide bond to a therapeutic agent.

[2] = test system: Tat binding to TAR RNA; assay: TAR-CAT / Tat plasmid transfected Jurkat cells, CAT protein by immunoassay; format: cell-based, HIV-1; conditions: inhibitor added at 18 h, CAT measured at 42 h
Method: FIG. 7 is a graph of the comparison of the inhibition of protein expression in a Jurkat cell line transfected with a TAR-CAT (TAR-Chloramphenicol Acetyl Transferase) plasmid and a Tat-protein plasmid. In this experiment, one group of cells was administered a Tat inhibitory biotinylated polypeptide derivative having a sequence of N-acetyl-Arg-Lys-Lys-Arg-Arg-Gln-Arg-Arg-Arg-Lys-(biotin)-Cys-NH2 (SEQ ID NO:3), and another group of cells was administered the same Tat inhibitory biotinylated peptide derivative conjugated to a carrier of the present invention via a disulfide bond between the sulfur atom of the thiol group of the thiol compound, and the thiol group of the Cys residue located between biotin and the amino group of the Tat inhibitory biotinylated polypeptide derivative of SEQ ID NO:3. […] Cysteamine was the thiol compound conjugated to the polymer. Conjugation of cysteamine to the polymer involved the carboxylic acid group of the lysine incorporated into the copolymer, which was available for reaction. If the polypeptide was successful in inhibiting Tat binding to TAR, CAT […]. […]
Initially, a Jurkat cell line was stably transfected with a TAR-CAT plasmid. […] At t=42 hours, the cells were harvested and CAT protein was measured by immunoassay. […]

Row | Substance | half-time of release of peptide from carrier [1] | half-time of release of radiolabeled peptide from carrier ([1]; 30 mM glutathione in PBS, sterically hindered linker 1-amino-2-methyl-2-propanethiol) | release rate, times slower than carrier with cysteamine ([1]; cleavage rate taken as proportional to glutathione concentration) | increase in potency relative to biotinylated Tat-peptide inhibitor administered alone [2]
1 | PEG-cysteamine-SEQ ID NO:10: radiolabeled SEQ ID NO:10 peptide disulfide-linked to PEG/Lys copolymer through cysteamine (Ac-RKKRRQRRRC-NH2; not fully specified (residue 10); printed as N-acetyl-Arg-Lys-Lys-Arg-Arg-Gln-Arg-Arg-Arg-Cys-NH2; also: radiolabel) | about 3 minutes | – | – | –
2 | PEG-cysteamine-N-acetyl-Phe-Arg-Arg-Arg-Cys-NH2 (Ac-FRRRC(cysteamine‑PEG/Lys copolymer)-NH2; reading uncertain; also: Cys disulfide-linked to PEG/Lys cysteamine carrier, printed as PEG-cysteamine-N-acetyl-Phe-Arg-Arg-Arg-Cys-NH2) [PEG-cysteamine-SEQ ID NO:9] | about 3 minutes | – | – | –
3 | PEG-1-amino-2-methyl-2-propanethiol-SEQ ID NO:3: radiolabeled SEQ ID NO:3 peptide disulfide-linked to PEG/Lys derivative of sterically hindered 1-amino-2-methyl-2-propanethiol (Ac-RKKRRQRRRK(Biotin)C-NH2; not fully specified (residue 11); printed as N-acetyl-Arg-Lys-Lys-Arg-Arg-Gln-Arg-Arg-Arg-Lys-(biotin)-Cys-NH2; also: acetyl group tritium-labelled, Cys11 disulfide-linked to PEG/Lys carrier bearing 1-amino-2-methyl-2-propanethiol) | – | about 40 min | about 100 times | –
4 | PEG-cysteamine-SEQ ID NO:3: SEQ ID NO:3 peptide disulfide-linked via its Cys to the cysteamine-PEG carrier (PEG/lysine copolymer, about 27,000 D) (Ac-RKKRRQRRRKC([cysteamine (disulfide)-PEG/Lys copolymer])-NH2; reading uncertain; also: Lys(biotin), position not given here) | about 3 minutes | – | – | about 5 fold
